# B1: GLS3000 T92A (antibody, name in Kabat numbering, V domains shown)
# VH: QVQLVESGGGVVQPGRSLRLSCAASGFTFSNAWMHWVRQAPGKGLEWVAQIKAKSNNYATYYAESVKGRFTISRDDSKNSLYLQMNSLKTEDTAVYYCRYVHYGAYYGVDAWGQGTTVTVSS
# VL: DIVMTQSPLSLPVTPGEPASISCRSSQSLVHSNRNTYLHWYQQKPGQAPRLLIYKVSNRFSGVPDRFSGSGSGTDFTLKISRVEAEDVGVYYCGQGAQVPYTFGQGTKLEIK
# notes: one-arm format as m2
# B2: GLS3000 V27cD (antibody, name in Kabat numbering, V domains shown)
# VH: QVQLVESGGGVVQPGRSLRLSCAASGFTFSNAWMHWVRQAPGKGLEWVAQIKAKSNNYATYYAESVKGRFTISRDDSKNSLYLQMNSLKTEDTAVYYCRYVHYGAYYGVDAWGQGTTVTVSS
# VL: DIVMTQSPLSLPVTPGEPASISCRSSQSLDHSNRNTYLHWYQQKPGQAPRLLIYKVSNRFSGVPDRFSGSGSGTDFTLKISRVEAEDVGVYYCGQGTQVPYTFGQGTKLEIK
# notes: one-arm format as m2
# B3: GLS3000 T92E (antibody, name in Kabat numbering, V domains shown)
# VH: QVQLVESGGGVVQPGRSLRLSCAASGFTFSNAWMHWVRQAPGKGLEWVAQIKAKSNNYATYYAESVKGRFTISRDDSKNSLYLQMNSLKTEDTAVYYCRYVHYGAYYGVDAWGQGTTVTVSS
# VL: DIVMTQSPLSLPVTPGEPASISCRSSQSLVHSNRNTYLHWYQQKPGQAPRLLIYKVSNRFSGVPDRFSGSGSGTDFTLKISRVEAEDVGVYYCGQGEQVPYTFGQGTKLEIK
# notes: one-arm format as m2
# B4: GLS3000 T92I (antibody, name in Kabat numbering, V domains shown)
# VH: QVQLVESGGGVVQPGRSLRLSCAASGFTFSNAWMHWVRQAPGKGLEWVAQIKAKSNNYATYYAESVKGRFTISRDDSKNSLYLQMNSLKTEDTAVYYCRYVHYGAYYGVDAWGQGTTVTVSS
# VL: DIVMTQSPLSLPVTPGEPASISCRSSQSLVHSNRNTYLHWYQQKPGQAPRLLIYKVSNRFSGVPDRFSGSGSGTDFTLKISRVEAEDVGVYYCGQGIQVPYTFGQGTKLEIK
# notes: one-arm format as m2
# B5: GLS3000 V27cS (antibody, name in Kabat numbering, V domains shown)
# VH: QVQLVESGGGVVQPGRSLRLSCAASGFTFSNAWMHWVRQAPGKGLEWVAQIKAKSNNYATYYAESVKGRFTISRDDSKNSLYLQMNSLKTEDTAVYYCRYVHYGAYYGVDAWGQGTTVTVSS
# VL: DIVMTQSPLSLPVTPGEPASISCRSSQSLSHSNRNTYLHWYQQKPGQAPRLLIYKVSNRFSGVPDRFSGSGSGTDFTLKISRVEAEDVGVYYCGQGTQVPYTFGQGTKLEIK
# notes: one-arm format as m2
# B6: GLS3000 T97P (antibody, name in Kabat numbering, V domains shown)
# VH: QVQLVESGGGVVQPGRSLRLSCAASGFTFSNAWMHWVRQAPGKGLEWVAQIKAKSNNYATYYAESVKGRFTISRDDSKNSLYLQMNSLKTEDTAVYYCRYVHYGAYYGVDAWGQGTTVTVSS
# VL: DIVMTQSPLSLPVTPGEPASISCRSSQSLVHSNRNTYLHWYQQKPGQAPRLLIYKVSNRFSGVPDRFSGSGSGTDFTLKISRVEAEDVGVYYCGQGTQVPYPFGQGTKLEIK
# notes: one-arm format as m2
# B7: GLS3000 V27cL (antibody, name in Kabat numbering, V domains shown)
# VH: QVQLVESGGGVVQPGRSLRLSCAASGFTFSNAWMHWVRQAPGKGLEWVAQIKAKSNNYATYYAESVKGRFTISRDDSKNSLYLQMNSLKTEDTAVYYCRYVHYGAYYGVDAWGQGTTVTVSS
# VL: DIVMTQSPLSLPVTPGEPASISCRSSQSLLHSNRNTYLHWYQQKPGQAPRLLIYKVSNRFSGVPDRFSGSGSGTDFTLKISRVEAEDVGVYYCGQGTQVPYTFGQGTKLEIK
# notes: one-arm format as m2
# B8: GLS3000 T92Y (antibody, name in Kabat numbering, V domains shown)
# VH: QVQLVESGGGVVQPGRSLRLSCAASGFTFSNAWMHWVRQAPGKGLEWVAQIKAKSNNYATYYAESVKGRFTISRDDSKNSLYLQMNSLKTEDTAVYYCRYVHYGAYYGVDAWGQGTTVTVSS
# VL: DIVMTQSPLSLPVTPGEPASISCRSSQSLVHSNRNTYLHWYQQKPGQAPRLLIYKVSNRFSGVPDRFSGSGSGTDFTLKISRVEAEDVGVYYCGQGYQVPYTFGQGTKLEIK
# notes: one-arm format as m2
# B9: GLS3000 T92D (antibody, name in Kabat numbering, V domains shown)
# VH: QVQLVESGGGVVQPGRSLRLSCAASGFTFSNAWMHWVRQAPGKGLEWVAQIKAKSNNYATYYAESVKGRFTISRDDSKNSLYLQMNSLKTEDTAVYYCRYVHYGAYYGVDAWGQGTTVTVSS
# VL: DIVMTQSPLSLPVTPGEPASISCRSSQSLVHSNRNTYLHWYQQKPGQAPRLLIYKVSNRFSGVPDRFSGSGSGTDFTLKISRVEAEDVGVYYCGQGDQVPYTFGQGTKLEIK
# notes: one-arm format as m2
# B10: GLS3000 V27cP (antibody, name in Kabat numbering, V domains shown)
# VH: QVQLVESGGGVVQPGRSLRLSCAASGFTFSNAWMHWVRQAPGKGLEWVAQIKAKSNNYATYYAESVKGRFTISRDDSKNSLYLQMNSLKTEDTAVYYCRYVHYGAYYGVDAWGQGTTVTVSS
# VL: DIVMTQSPLSLPVTPGEPASISCRSSQSLPHSNRNTYLHWYQQKPGQAPRLLIYKVSNRFSGVPDRFSGSGSGTDFTLKISRVEAEDVGVYYCGQGTQVPYTFGQGTKLEIK
# notes: one-arm format as m2
# B11: GLS3000 T92P (antibody, name in Kabat numbering, V domains shown)
# VH: QVQLVESGGGVVQPGRSLRLSCAASGFTFSNAWMHWVRQAPGKGLEWVAQIKAKSNNYATYYAESVKGRFTISRDDSKNSLYLQMNSLKTEDTAVYYCRYVHYGAYYGVDAWGQGTTVTVSS
# VL: DIVMTQSPLSLPVTPGEPASISCRSSQSLVHSNRNTYLHWYQQKPGQAPRLLIYKVSNRFSGVPDRFSGSGSGTDFTLKISRVEAEDVGVYYCGQGPQVPYTFGQGTKLEIK
# notes: one-arm format as m2
# B12: GLS3000 T92L (antibody, name in Kabat numbering, V domains shown)
# VH: QVQLVESGGGVVQPGRSLRLSCAASGFTFSNAWMHWVRQAPGKGLEWVAQIKAKSNNYATYYAESVKGRFTISRDDSKNSLYLQMNSLKTEDTAVYYCRYVHYGAYYGVDAWGQGTTVTVSS
# VL: DIVMTQSPLSLPVTPGEPASISCRSSQSLVHSNRNTYLHWYQQKPGQAPRLLIYKVSNRFSGVPDRFSGSGSGTDFTLKISRVEAEDVGVYYCGQGLQVPYTFGQGTKLEIK
# notes: one-arm format as m2
# B13: GLS3000 T92S (antibody, name in Kabat numbering, V domains shown)
# VH: QVQLVESGGGVVQPGRSLRLSCAASGFTFSNAWMHWVRQAPGKGLEWVAQIKAKSNNYATYYAESVKGRFTISRDDSKNSLYLQMNSLKTEDTAVYYCRYVHYGAYYGVDAWGQGTTVTVSS
# VL: DIVMTQSPLSLPVTPGEPASISCRSSQSLVHSNRNTYLHWYQQKPGQAPRLLIYKVSNRFSGVPDRFSGSGSGTDFTLKISRVEAEDVGVYYCGQGSQVPYTFGQGTKLEIK
# notes: one-arm format as m2
# B14: GLS3000 V27cE (antibody, name in Kabat numbering, V domains shown)
# VH: QVQLVESGGGVVQPGRSLRLSCAASGFTFSNAWMHWVRQAPGKGLEWVAQIKAKSNNYATYYAESVKGRFTISRDDSKNSLYLQMNSLKTEDTAVYYCRYVHYGAYYGVDAWGQGTTVTVSS
# VL: DIVMTQSPLSLPVTPGEPASISCRSSQSLEHSNRNTYLHWYQQKPGQAPRLLIYKVSNRFSGVPDRFSGSGSGTDFTLKISRVEAEDVGVYYCGQGTQVPYTFGQGTKLEIK
# notes: one-arm format as m2
# B15: GLS3000 V27cI (antibody, name in Kabat numbering, V domains shown)
# VH: QVQLVESGGGVVQPGRSLRLSCAASGFTFSNAWMHWVRQAPGKGLEWVAQIKAKSNNYATYYAESVKGRFTISRDDSKNSLYLQMNSLKTEDTAVYYCRYVHYGAYYGVDAWGQGTTVTVSS
# VL: DIVMTQSPLSLPVTPGEPASISCRSSQSLIHSNRNTYLHWYQQKPGQAPRLLIYKVSNRFSGVPDRFSGSGSGTDFTLKISRVEAEDVGVYYCGQGTQVPYTFGQGTKLEIK
# notes: one-arm format as m2
# Target: CD3ε homodimer protein (human, UniProt P07766 23-126, limits assumed)
# Test: SPR, immobilized CD3ε homodimer;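 also: biacore T200 surface plasmon resonance at 25 °C, antibody variants flowed as analytes over amine-coupled CD3ε homodimer on a CM4 chip, variant binding amount divided by that of GLS3000 antibody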
# Sequence of CD3ε homodimer protein (P07766 23-126 limits assumed): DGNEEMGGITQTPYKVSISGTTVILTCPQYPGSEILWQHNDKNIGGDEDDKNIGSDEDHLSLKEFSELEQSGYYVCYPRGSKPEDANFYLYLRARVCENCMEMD
row,Binder,ratio of amounts bound (vs GLS3000)
1,B1,0.63
2,B2,0.32
3,B3,0.17
4,B4,0.34
5,B5,0.51
6,B6,0.31
7,B7,0.84
8,B8,0.33
9,B9,0.18
10,B10,0.3
11,B11,0.26
12,B12,0.42
13,B13,0.96
14,B14,0.61
15,B15,0.96

# From patent publication US20220040297A1 (Chugai, published 2022)
